# Measured values as given in patent US20230097381A1, “COMPOSITION, KIT AND METHOD FOR DIAGNOSIS AND TREATMENT OF PROSTATE CANCER” (RADIOMEDIX, INC., priority 2020, published 2023).
# Key:
# in vivo [1] = test: in vivo; design: species or system athymic nude mice; conditions: athymic nude, mouse, iv, total radioactivity
# Procedure: (§1) Mice bearing LNCap and 22Rv1 xenografts were injected via the tail vein with 50-100 μCi of ^64Cu-DOTAM-PSMA reconstituted in 150-200 μL of saline. At 1 h, 2 h, and 24 hrs. post injection, while under anesthesia blood was collected by cardiac puncture and mice were sacrificed by cervical dislocation. The heart, lung liver, stomach, pancreas, spleen fat, kidney, muscle, intestines, skin and tumor were collected. Each organ was weighed, and the tissue radioactivity was measured with an automated gamma counter (2470 Wizard2 Gamma Counter, Perkin-Elmer, Waltham, Mass.). The percentage of injected dose per gram of tissue (% ID/g) was calculated. All measurements were corrected for decay.
# [2] = test system: PSMA-overexpressing LNCap and 22Rv1-derived xenografts; design: species or system Athymic Nude Mice; conditions: mouse, in vivo
# Procedure: About 5×10^6 LNCap and 22Rv1 cells suspended in 100 μL of RPMI 1640 with 50% Matrigel (Corning, Corning, N.Y.) were subcutaneously injected into upper flank of 6-7-week-old mice. Xenografts were generated in Athymic Nude Mice (Envigo, Indianapolis, Ind. and Taconic, Rensselaer, N.Y.). When xenograft tumor reached the size of 0.25 cm^3 in diameter, all mice were randomly divided in groups for PET imaging and biodistribution studies.
# PET/X-Ray imaging studies were performed using GENISYS^4 scanner (Sofie Bioscience, Curlver City, Calif.). Mice were anesthetized using with isoflurane (2% in 98% oxygen) and their temperature was kept at 38° C. with a heating lamp during injection of the agent and image acquisition All images were corrected for photon attenuation, but scatter correction was not applied. Maximum-Likehood Expectation Maximization was used to create final images volumes. Static PET scans were acquired approximately at 1 h, 2 h, 4 h after intravenous injection of ^64Cu-DOTAM-PSMA in 200 μL volume. The image acquisition time was 10 minutes. VivoQuant software (Invicro, Boston, Mass.) was used to determine the ROI (Sum) for tumor, liver, kidney, muscle and salivary gland which were equivalent to % ID/g uptake of agent at various time points.
# [3] = test system: LNCap and 22Rv1 xenografts; design: species or system R2G2 strain of mice; conditions: mouse, in vivo
# Procedure: as §1, with “[…] strains of mice” for “Mice”
# LNCap xenografts [4] = test: in vivo; design: species or system athymic nude mice; conditions: mouse
# Procedure: (§2) Athymic strains of mice bearing LNCap xenografts were injected via the tail vein with 40 μCi of ^203Pb-DOTAM-PSMA reconstituted in 200-250 μL of saline. At 1 h and 3 h post injection, while under anesthesia blood was collected by cardiac puncture and mice were sacrificed by cervical dislocation. The heart, lung liver, stomach, pancreas, spleen fat, kidney, muscle, intestines, skin and tumor were collected. Each organ was weighed, and the tissue radioactivity was measured with an automated gamma counter (2470 Wizard2 Gamma Counter, Perkin-Elmer, Waltham, Mass.). The percentage of injected dose per gram of tissue (% ID/g) was calculated. All measurements were corrected for decay.
# in vivo [5] = test: in vivo; design: species or system athymic nude mice; conditions: athymic nude, mouse, iv, 40 uCi, total radioactivity
# Procedure: as §2
# LNCap xenografts [6] = test: in vivo; design: species or system athymic nude mice; conditions: mouse; remark: listed apart in the source
# Procedure: as §2, with “with 15” for “with 40”, “of ^212Pb-DOTAM-PSMA” for “of ^203Pb-DOTAM-PSMA”, “in 150-200” for “in 200-250”, “1 h,” for “1 h and”, “3 h,” for “3 h”, “calculated. AH” for “calculated. All”
# in vivo [7] = test: in vivo; design: species or system athymic nude mice; conditions: athymic nude, mouse, iv, 15 uCi, total radioactivity
# Procedure: as §2, with “with 15” for “with 40”, “of ^212Pb-DOTAM-PSMA” for “of ^203Pb-DOTAM-PSMA”, “in 150-200” for “in 200-250”, “1 h,” for “1 h and”, “3 h,” for “3 h”, “calculated. AH” for “calculated. All”
structure (smiles),measurement,setting,value
"NC(=O)CN1CCN(CC(N)=O)CCN(CC(=O)N[C@H](Cc2ccccc2)C(=O)N[C@H](Cc2ccccc2)C(=O)N[C@H](CCCCNC(=O)CCCCCCC(=O)NCCCC[C@H](NC(=O)N[C@@H](CCC(=O)O)C(=O)O)C(=O)O)C(=O)O)CCN(CC(N)=O)CC1 [^64Cu-DOTAM-PSMA, metal not drawn]",tissue uptake at 24 h,in vivo [1]; Retention in tumor,10 ± 11.1 %ID/g
same,tissue uptake at 2 h,in vivo [1]; Tumor uptake,24.8 ± 31.1 %ID/g
same,tissue uptake at 4 h,in vivo [1]; Tumor uptake,9.7 ± 10.9 %ID/g
same,tissue uptake at 2 h,in vivo [1]; off-target accumulation in kidneys,20 ± 2.9 %ID/g
same,tissue uptake at 2 h,in vivo [1]; off-target accumulation in liver,45.8 ± 6.2 %ID/g
same,tissue uptake at 4 h,in vivo [1]; renal retention,13 ± 0.6 %ID/g
same,tissue uptake at 24 h,in vivo [1]; uptake in kidneys,7.8 ± 7.9 %ID/g
same,tissue uptake at 24 h,in vivo [1]; uptake in liver,12.4 ± 11.9 %ID/g
same,highest non-target uptake of agent (organ),[2],liver
same,retention in LNCap and 22Rv1-derived tumors (microPET),[2],confirmed retention
same,tumor retention in LNCap and 22Rv1 cancer cells (microPET),[2],confirmed its tumor retention
same,"liver retention of trans-chelated Cu64, comparison of strains",[3],higher in R2G2 mice strain compared to NOG strain but it was still lower the one observed in athymic nude
same,"tumor retention, R2G2 strain versus NOG strain",[3],much more favorable in R2G2 strain than NOG strain
"NC(=O)CN1CCN(CC(N)=O)CCN(CC(=O)N[C@H](Cc2ccccc2)C(=O)N[C@H](Cc2ccccc2)C(=O)N[C@H](CCCCNC(=O)CCCCCCC(=O)NCCCC[C@H](NC(=O)N[C@@H](CCC(=O)O)C(=O)O)C(=O)O)C(=O)O)CCN(CC(N)=O)CC1 [^203Pb-DOTAM-PSMA, metal not drawn]",decrease of renal retention,LNCap xenografts [4],32%
same,"normal organs distribution, ^203Pb- versus ^212Pb-DOTAM-PSMA",LNCap xenografts [4],very similar normal organs distribution
same,tissue uptake at 1 h,in vivo [5],16.1 ± 0.8 %ID/g
same,tissue uptake at 3 h,in vivo [5],> 4.8 %ID/g
"NC(=O)CN1CCN(CC(N)=O)CCN(CC(=O)N[C@H](Cc2ccccc2)C(=O)N[C@H](Cc2ccccc2)C(=O)N[C@H](CCCCNC(=O)CCCCCCC(=O)NCCCC[C@H](NC(=O)N[C@@H](CCC(=O)O)C(=O)O)C(=O)O)C(=O)O)CCN(CC(N)=O)CC1 [^212Pb-DOTAM-PSMA, metal not drawn]",decrease of renal retention,LNCap xenografts [6],55%
same,uptake in bone and spleen,LNCap xenografts [6],not uptake of agent in bone and spleen
same,tissue uptake at 1 h,in vivo [7]; Tumor uptake,5.7 ± 0.9 %ID/g
same,tissue uptake at 3 h,in vivo [7]; Tumor uptake,7.2 ± 2.6 %ID/g
same,tissue uptake at 1 h,in vivo [7]; renal retention,32.2 ± 15.6 %ID/g
same,tissue uptake at 3 h,in vivo [7]; renal retention,17.7 ± 9.4 %ID/g
